We go through 1 substance from article PMC5829824.

This assay concerns the target mCherry-tagged human vimentin (human) (UniProt P08670). Description: co-IP; mCherry-vimentin or RFP from bEnd.3 cell extracts immunoprecipitated with RFP-trap beads, then incubated with purified InlF-His6; eluates blotted with anti-His6 and anti-RFP; densitometry.

Chain of mCherry-tagged human vimentin (human) (P08670 whole entry): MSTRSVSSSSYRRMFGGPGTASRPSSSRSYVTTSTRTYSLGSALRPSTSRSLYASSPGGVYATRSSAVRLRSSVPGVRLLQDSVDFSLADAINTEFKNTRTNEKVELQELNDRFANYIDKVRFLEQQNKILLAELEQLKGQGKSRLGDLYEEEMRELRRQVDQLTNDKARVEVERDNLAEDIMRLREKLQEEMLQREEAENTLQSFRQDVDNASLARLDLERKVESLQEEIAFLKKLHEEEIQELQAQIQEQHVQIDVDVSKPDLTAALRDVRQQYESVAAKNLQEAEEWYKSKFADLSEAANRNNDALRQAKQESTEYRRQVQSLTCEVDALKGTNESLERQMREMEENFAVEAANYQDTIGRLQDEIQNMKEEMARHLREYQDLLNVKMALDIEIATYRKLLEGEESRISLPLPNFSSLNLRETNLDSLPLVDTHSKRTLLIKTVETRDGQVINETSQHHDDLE

For the substance “InlF-His6 (Listeria monocytogenes internalin family surface protein InlF, His6-tagged) (from UniProt O33930 1-821) (natural protein)”, the ratio of anti-His to anti-RFP signals (densitometry), fold over the RFP control was over 5 fold.
